Data reported in patent US20200190151A1, “KV1.3-BLOCKING VENOM PEPTIDE VARIANTS AND RELATED USES” (The Scripps Research Institute, priority 2016, published 2020).
Entries after “also recorded” stand apart in the source; their conditions may differ. Like-named read-outs stand apart in the source and are kept apart here.

Legend:
Kv1.1 = target: T1, Kv1.1 (Homo sapiens, UniProt Q09470); assay: Patch clamp on HEK293 cells expressing Kv1.1; type: cell-based
T1 construct: expressed in transfected cells; host or cells: HEK293
T1 sequence (Q09470 whole entry): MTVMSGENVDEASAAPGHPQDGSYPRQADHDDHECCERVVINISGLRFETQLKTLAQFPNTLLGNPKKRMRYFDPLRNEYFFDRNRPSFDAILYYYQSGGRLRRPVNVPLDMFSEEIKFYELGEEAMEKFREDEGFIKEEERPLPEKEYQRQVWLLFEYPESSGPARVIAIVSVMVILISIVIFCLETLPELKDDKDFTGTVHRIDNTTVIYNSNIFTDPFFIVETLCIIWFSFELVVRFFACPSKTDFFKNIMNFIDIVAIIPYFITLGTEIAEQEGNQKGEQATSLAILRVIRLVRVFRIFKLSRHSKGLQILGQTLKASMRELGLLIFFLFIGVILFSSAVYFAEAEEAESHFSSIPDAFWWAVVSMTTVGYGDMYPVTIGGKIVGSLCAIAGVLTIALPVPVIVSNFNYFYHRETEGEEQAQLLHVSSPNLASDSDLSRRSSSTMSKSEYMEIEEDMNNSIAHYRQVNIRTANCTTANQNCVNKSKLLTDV
Procedure: (§1) The variegated region of each variant was extracted based on the known flanking sequences. The ratio between number of unique toxins and count of all reads represented the diversity of a selected library. Highly enriched variants versus those that were not enriched were chosen and their affinity to Kv1.3 were assessed and ranked. In general, the enrichment factor of a variant is positively correlated with its affinity to Kv1.3 (FIG. 4). […] To test the critical property of specificity, patch clamp analysis of S1-2 was also carried out on HEK293 cells expressing other Kv1 family members including Kv1.1 through Kv1.7 and the hERG channel.
(§2) Electrophysiology recording: HEKA EPC 10 USB patch clamp amplifier (from HEKA Elektronik, Germany) was used for the whole cell recording. A cover slip with abundant single HEK293 Kv1.3 stable cells on the surface was removed and placed into a continuously perfused (approximately 1-2 ml/minute) recording chamber mounted on an inverted microscope. The Kv1.3 current was recorded from single cell using standard whole cell recording techniques. The cell was voltage clamped at a holding potential of −80 mV. Outward potassium currents were measured using the whole-cell configuration of the patch clamp technique at a test potential of 40 mV from a holding potential of −80 mV. Current records were acquired at 2-5 KHz and filtered at 1-2 KHz. […]

Kv1.3 channel [1] = type: cell-based, human
Kv1.3 channel, sequence (P22001 53-575 limits assumed): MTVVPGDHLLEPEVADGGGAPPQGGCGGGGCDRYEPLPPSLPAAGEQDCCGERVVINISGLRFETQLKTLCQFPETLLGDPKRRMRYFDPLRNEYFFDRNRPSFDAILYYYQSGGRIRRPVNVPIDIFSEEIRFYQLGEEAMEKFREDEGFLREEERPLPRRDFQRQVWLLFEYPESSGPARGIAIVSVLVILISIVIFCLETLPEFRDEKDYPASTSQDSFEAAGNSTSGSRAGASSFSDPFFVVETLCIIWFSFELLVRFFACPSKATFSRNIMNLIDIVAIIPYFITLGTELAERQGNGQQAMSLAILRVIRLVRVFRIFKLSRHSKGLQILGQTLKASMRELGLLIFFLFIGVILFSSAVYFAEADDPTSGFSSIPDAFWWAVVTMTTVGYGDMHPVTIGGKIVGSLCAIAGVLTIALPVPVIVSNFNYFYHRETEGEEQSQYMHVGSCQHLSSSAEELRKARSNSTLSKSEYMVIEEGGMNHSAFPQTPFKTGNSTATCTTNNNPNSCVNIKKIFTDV

Kv1.3 channel [2] = target: T2, Kv1.3 channel (Homo sapiens, UniProt P22001); assay: Whole-cell patch clamp electrophysiology, HEK293 Kv1.3 stable cells; type: cell-based
T2 construct: expressed in transfected cells
T2 sequence (P22001 whole entry): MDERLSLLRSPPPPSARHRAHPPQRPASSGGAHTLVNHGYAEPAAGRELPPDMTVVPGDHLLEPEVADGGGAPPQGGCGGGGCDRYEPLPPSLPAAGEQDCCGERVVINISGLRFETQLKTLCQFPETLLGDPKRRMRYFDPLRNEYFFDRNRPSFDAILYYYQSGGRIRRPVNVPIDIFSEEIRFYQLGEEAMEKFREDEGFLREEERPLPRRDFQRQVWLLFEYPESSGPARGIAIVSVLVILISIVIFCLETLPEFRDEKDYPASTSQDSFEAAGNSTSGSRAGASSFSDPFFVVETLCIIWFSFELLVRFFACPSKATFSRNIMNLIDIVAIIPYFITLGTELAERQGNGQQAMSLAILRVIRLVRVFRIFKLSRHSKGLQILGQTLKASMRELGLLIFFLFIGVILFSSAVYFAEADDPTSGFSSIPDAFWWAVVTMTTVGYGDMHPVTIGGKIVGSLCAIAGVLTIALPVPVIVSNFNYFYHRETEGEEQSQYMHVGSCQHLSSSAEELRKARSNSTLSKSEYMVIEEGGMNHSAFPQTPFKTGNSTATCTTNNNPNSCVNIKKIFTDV
Procedure: as §1, §2

Kv1.6 = target: T3, Kv1.6 (Homo sapiens, UniProt P17658); assay: Patch clamp on HEK293 cells expressing Kv1.6; type: cell-based
T3 construct: expressed in transfected cells; host or cells: HEK293
T3 sequence (P17658 whole entry): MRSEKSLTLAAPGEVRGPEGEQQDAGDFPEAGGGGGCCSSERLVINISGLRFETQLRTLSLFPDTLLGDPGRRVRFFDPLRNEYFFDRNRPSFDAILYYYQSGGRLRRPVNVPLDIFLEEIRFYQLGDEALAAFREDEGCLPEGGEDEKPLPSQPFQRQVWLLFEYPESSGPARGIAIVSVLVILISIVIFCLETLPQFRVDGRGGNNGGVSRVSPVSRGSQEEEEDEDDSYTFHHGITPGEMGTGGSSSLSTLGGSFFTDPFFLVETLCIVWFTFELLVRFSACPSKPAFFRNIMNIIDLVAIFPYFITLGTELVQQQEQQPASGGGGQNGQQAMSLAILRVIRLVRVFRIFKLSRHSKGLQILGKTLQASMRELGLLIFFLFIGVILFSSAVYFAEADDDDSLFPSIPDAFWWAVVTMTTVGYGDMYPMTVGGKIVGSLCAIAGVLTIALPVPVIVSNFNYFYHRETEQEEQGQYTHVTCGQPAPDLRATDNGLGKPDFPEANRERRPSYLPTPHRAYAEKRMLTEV
Procedure: as §1, §2

[3] = lentivirus encoding membrane tethered peptide

Substance: ShK
- Effect on Kv1.1, in words (Kv1.1): comparable inhibition
- Activation of tdTomato reporter in Kv1.3 reporter cells, in words (Kv1.3 channel [1]; [3]): stimulated the Kv1.3 reporter cells to express tdTomato fluorescent protein
- Block / inhibition of Kv1.3 channel, in words (Kv1.3 channel [2]): comparable inhibition
- Effect on Kv1.6, in words (Kv1.6): comparable inhibition

Substance: CllTx1 (ITINVKCTSPQQCLRPCKDRFGQHAGGKCINGKCKCYP)
- Block / inhibition of Kv1.3 channel, in words (Kv1.3 channel [2]): strongly blocked; also recorded: potently blocked

Substance: Exendin-4: GLP-1 receptor targeting peptide, negative control lentivirus
- Activation of tdTomato reporter in Kv1.3 reporter cells, in words (Kv1.3 channel [1]; [3]): no activity

Substance: Anuroctoxin
- Activation of tdTomato reporter in Kv1.3 reporter cells, in words (Kv1.3 channel [1]; [3]): stimulated the Kv1.3 reporter cells to express tdTomato fluorescent protein

Substance: Vc1.1
- Activation of tdTomato reporter in Kv1.3 reporter cells, in words (Kv1.3 channel [1]): no activity
